Measurements as given in US20210040228.

System: D11-CD8stk-IL2Rg_A5-Hinge-IL2Rb
Sequence (chain, as listed by the source, chain 1 of 2): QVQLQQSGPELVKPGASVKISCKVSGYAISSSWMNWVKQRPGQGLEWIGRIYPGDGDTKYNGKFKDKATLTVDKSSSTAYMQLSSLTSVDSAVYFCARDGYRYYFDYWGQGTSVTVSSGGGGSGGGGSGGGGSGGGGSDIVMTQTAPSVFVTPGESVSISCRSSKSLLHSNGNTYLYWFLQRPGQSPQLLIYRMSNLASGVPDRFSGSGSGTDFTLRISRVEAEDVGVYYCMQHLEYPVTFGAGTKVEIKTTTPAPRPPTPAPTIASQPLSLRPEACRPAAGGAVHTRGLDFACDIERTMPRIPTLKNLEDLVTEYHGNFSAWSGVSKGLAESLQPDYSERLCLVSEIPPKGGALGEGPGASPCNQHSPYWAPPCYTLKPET
Sequence (chain, as listed by the source, chain 2 of 2): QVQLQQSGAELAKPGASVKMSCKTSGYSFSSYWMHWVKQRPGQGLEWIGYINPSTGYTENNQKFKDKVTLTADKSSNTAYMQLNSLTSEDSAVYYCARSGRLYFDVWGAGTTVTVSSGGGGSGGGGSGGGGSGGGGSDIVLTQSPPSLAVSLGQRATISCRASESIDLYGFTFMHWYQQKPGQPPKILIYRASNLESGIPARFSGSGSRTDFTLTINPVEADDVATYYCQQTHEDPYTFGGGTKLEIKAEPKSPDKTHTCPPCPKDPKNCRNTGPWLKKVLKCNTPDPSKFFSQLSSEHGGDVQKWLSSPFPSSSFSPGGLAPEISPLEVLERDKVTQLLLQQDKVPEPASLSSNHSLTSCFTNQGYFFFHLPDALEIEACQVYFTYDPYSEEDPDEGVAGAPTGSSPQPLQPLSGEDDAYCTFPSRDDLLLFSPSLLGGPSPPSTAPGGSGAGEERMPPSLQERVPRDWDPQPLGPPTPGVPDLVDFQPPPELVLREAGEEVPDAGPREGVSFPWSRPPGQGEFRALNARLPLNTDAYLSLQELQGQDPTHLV

prostate-specific antigen (PSA)
phosphorylation of Y694 of STAT5 (phosphoflow), 500 ng/mL PSA for 1 or 4 hours: In the cells expressing the PSA CCR, the presence of PSA lead to increasing STAT5 phosphorylation with time
